Assay results reported in US20250346679A1 (INVOX PHARMA, published 2025).

Key:
[1] = molecular target: T1, human CD137, cell-surface (human, UniProt Q07011 24-255); experiment: cell-based or functional assay
[2] = molecular target: T2, cynomolgus CD137, cell-surface (cynomolgus, UniProt Q07011 24-255 (human entry)); experiment: cell-based or functional assay
T2 chain: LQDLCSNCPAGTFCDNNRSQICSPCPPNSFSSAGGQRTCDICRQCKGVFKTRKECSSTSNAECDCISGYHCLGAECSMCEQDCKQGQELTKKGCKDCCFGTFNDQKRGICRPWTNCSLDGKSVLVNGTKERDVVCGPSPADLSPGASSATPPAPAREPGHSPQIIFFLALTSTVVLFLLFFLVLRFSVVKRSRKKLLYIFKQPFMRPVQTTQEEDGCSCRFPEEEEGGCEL

[3] = molecular target: T1, human CD137, cell-surface; experiment: cell-based or functional assay; remark: listed apart in the source
[4] = molecular target: T3, human PD-L1, cell-surface (human, UniProt Q9NZQ7 19-290); experiment: cell-based or functional assay
[5] = molecular target: T3, human PD-L1, cell-surface; experiment: flow cytometry on HEK.hPD-L1
Description: Non-specific binding was also assessed by testing binding to HEK293 parental cells lacking human PD-L1 (Flp-In T-Rex 293 cell line, Life Technologies, R780-07).
(§1) HEK293, HEK.hPD-L1 and HEK.cPD-L1 suspensions were prepared in FACS buffer (DPBS (Gibco, 14190-094) containing 0.5% BSA (Sigma, A7906)) and seeded at 1×10⁵ cell/well in 100 μl in round bottomed 96-well plates (VWR, 734-1797). […] The washed cells were resuspended in the diluted antibody mixture, incubated at 4° C. for 30 minutes, and then washed once in FACS buffer. […] Dead cells were excluded and the fluorescence in the APC channel (638 nm 660/20) was measured. The geometric mean fluorescence intensity (GMFI) values were plotted vs the log concentration of antibody and the resulting curves were fitted using the log (agonist) vs response equation in GraphPad Prism.

[6] = molecular target: T1, human CD137, cell-surface; experiment: flow cytometry on DO11.10.hCD137
Description: Non-specific binding was also assessed by testing binding to DO11.10 cells lacking CD137 expression.
as §1, with “Briefly, DO11.10, DO11.10.hCD137 or DO11.10.cCD137” for “HEK293, HEK.hPD-L1 and HEK.cPD-L1”, “(DPBS containing” for “(DPBS”

[7] = molecular target: Human FcRn (Acro Biosystems, FCM-H5286) (human, UniProt P55899 24-297; P61769 21-119); experiment: SPR, mAb^2 immobilised, FcRn in flow, pH 6.0, steady state affinity; pH 6.0
Text: (§2) The neonatal Fc receptor (FcRn) binding is critical for antibody recycling (Martins et al., 2016). […] G1-AA/HeID1.3 was included as an isotype control IgG control lacking mutations in the CH3 domain.
(§3) Briefly, mAb² were individually coated on flow cell 2, 3 and 4 of Series S Sensor Chip CM5 (GE Healthcare, BR100530) to achieve a response of approximately 1000 RU. Flow cell 1 was activated/deactivated but left blank as a reference. Human FcRn (Acro Biosystems, FCM-H5286) or mouse FcRn (R&D systems, 9114-Fc) was dialysed and diluted in MHBS-EP⁺B pH 6.0 or pH 7.4 buffer (10 mM MES, FortéBio, 18-5026; 1×HBS-EP, GE Healthcare, BR100669; 0.1 mg/ml BSA, Sigma, A7906) and injected on flow cell 1, 2, 3 and 4 at 2000-3000 nM with 2-fold dilutions for 1 min at 80 μl/min and then allowed to dissociate in buffer for 3 min. […] Subtracted data (flow cell 2−flow cell 1, flow cell 3−flow cell 1, or flow cell 4−flow cell 1) was analysed using Biacore T200 Evaluation Software 2.0 to identify binding using the model steady state affinity.

[8] = molecular target: T4, mouse FcRn (R&D systems, 9114-Fc) (mouse, UniProt Q61559 22-297; P01887 21-119, limits assumed); experiment: as above
T4 sequence (looked up) 1: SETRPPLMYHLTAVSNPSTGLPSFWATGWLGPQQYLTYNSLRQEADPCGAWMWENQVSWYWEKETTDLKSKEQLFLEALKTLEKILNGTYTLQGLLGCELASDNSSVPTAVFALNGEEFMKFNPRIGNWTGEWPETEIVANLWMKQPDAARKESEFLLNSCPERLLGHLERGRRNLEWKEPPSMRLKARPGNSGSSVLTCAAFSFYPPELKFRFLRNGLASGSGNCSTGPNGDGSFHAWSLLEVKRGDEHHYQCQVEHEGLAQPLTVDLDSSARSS
T4 sequence (looked up) 2: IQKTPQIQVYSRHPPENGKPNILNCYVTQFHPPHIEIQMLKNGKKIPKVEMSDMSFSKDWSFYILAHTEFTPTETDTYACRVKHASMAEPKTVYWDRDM
Text: as §2, §3

[9] = molecular target: T3, human PD-L1, cell-surface; experiment: flow cytometry on activated primary human CD8+ T cells (carry PD-L1 and CD137); activated primary human CD8+ T cells (carry PD-L1 and little CD137)
Description: CD137 is rapidly expressed to high levels on activated CD8⁺ T cells and also on activated CD4⁺ T cells with lower levels (Xue-Zhong Yu et al, 2013), therefore Pan T cells were stimulated for 24 hours using Dynabeads™ Human T-Activator CD3/CD28 beads (Thermo, 11132D) according to manufacturer's instructions.
Dead cells were excluded and the fluorescence in the APC channel (638 nm 660/20) was measured to show test antibody binding. The geometric Mean Fluorescence Intensity (GMFI) values were plotted vs the log concentration of antibody and the resulting curves were fitted using the log (agonist) vs response equation in GraphPad Prism.

T3 sequence (Q9NZQ7 19-290): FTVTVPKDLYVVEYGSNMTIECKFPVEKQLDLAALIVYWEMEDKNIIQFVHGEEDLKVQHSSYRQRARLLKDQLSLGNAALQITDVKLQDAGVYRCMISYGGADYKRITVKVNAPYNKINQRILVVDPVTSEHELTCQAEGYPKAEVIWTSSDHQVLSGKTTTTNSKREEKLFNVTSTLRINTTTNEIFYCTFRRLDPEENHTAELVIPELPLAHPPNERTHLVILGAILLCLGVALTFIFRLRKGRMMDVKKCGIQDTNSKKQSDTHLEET
Sequence of Human FcRn (Acro Biosystems, FCM-H5286) (P55899 24-297 limits assumed, chain 1 of 2): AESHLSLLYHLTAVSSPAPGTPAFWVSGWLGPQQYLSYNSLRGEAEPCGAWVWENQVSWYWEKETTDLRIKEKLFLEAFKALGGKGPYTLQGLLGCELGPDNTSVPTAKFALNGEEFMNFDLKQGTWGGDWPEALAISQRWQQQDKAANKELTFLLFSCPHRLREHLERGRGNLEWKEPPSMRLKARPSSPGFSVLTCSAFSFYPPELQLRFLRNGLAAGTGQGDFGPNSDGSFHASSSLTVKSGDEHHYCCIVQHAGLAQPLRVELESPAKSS
Sequence of Human FcRn (Acro Biosystems, FCM-H5286) (P61769 21-119 limits assumed, chain 2 of 2): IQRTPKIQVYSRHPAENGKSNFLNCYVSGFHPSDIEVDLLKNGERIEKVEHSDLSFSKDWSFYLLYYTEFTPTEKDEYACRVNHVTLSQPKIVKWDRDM

B1: FS22-172-003-AA/E12v2 (bispecific antibody, human IgG1, kappa, L234A L235A)
heavy: EVQLVQSGAEVKRPGASVKVSCKASGYPFTSYGISWVRQAPGQGLEWMGWISAYSGGTNYAQKLQGRVTMTTDTSTSTAYMELRSLRSDDTAVYYCARDLFPTIFGVSYYYYWGQGTLVTVSSASTKGPSVFPLAPSSKSTSGGTAALGCLVKDYFPEPVTVSWNSGALTSGVHTFPAVLQSSGLYSLSSVVTVPSSSLGTQTYICNVNHKPSNTKVDKKVEPKSCDKTHTCPPCPAPEAAGGPSVFLFPPKPKDTLMISRTPEVTCVVVDVSHEDPEVKFNWYVDGVEVHNAKTKPREEQYNSTYRVVSVLTVLHQDWLNGKEYKCKVSNKALPAPIEKTISKAKGQPREPQVYTLPPSRDELPYIIPPYNQVSLTCLVKGFYPSDIAVEWESNGQPENNYKTTPPVLDSDGSFFLYSKLTVGADRWLEGNVFSCSVMHEALHNHYTQKSLSLSPG
light: DIQMTQSPSTLSASVRDRVIITCRASQSIGNRLAWYQHKPGKAPKLLIYEASTSETGVPSRFSGSGSGTDFTLTISSLQPEDFATYYCQQSYSTPYTFGQGTKLEIKRTVAAPSVFIFPPSDEQLKSGTASVVCLLNNFYPREAKVQWKVDNALQSGNSQESVTEQDSKDSTYSLSSTLTLSKADYEKHKVYACEVTHQGLSSPVTKSFNRGEC
notes: PD-L1 site in the Fab, CD137 site in the CH3, LALA; also called anti-human CD137/PD-L1 mAb^2
With B1 the “EC50, IFN-γ release, human PBMC assay” value [1] was 0.03 nM, the “EC50, IFN-γ release, cynomolgus PBMC assay” value [2] was 0.08 nM and the “EC50 (nM), hIL-2 release, CD8+ T cells, donor 171115A, HEK.hPD-L1 XL” value [3] was 0.24 nM. The “EC50 (nM), hIL-2 release, CD8+ T cells, donor 171115A, MDA-MB-231 XL” value [3] was 0.02 nM, the “EC50 (nM), hIL-2 release, CD8+ T cells, donor 171115B, HEK.hPD-L1 XL” value [3] was 0.31 nM and the “EC50 (nM), hIL-2 release, CD8+ T cells, donor 171115B, MDA-MB-231 XL” value [3] was 0.02 nM. The “EC50 (nM), mouse IL-2 release, DO11.10 / LK35.2 PD-L1 blockade assay” value [4] was 1.27 nM, the EC50 [5] was 3.7 nM and the EC50 [6] was 6.2 nM. The Kd [7] was 1120 nM, the Kd [8] was 158 nM and the EC50 [9] was 0.9 nM.
